Literature values as cited in paper PMC6399403.
Read-outs that look alike come from different tables or passages of the source.

What was measured:
CD155 (Homo sapiens) [1] = molecular target: CD155 (Homo sapiens) (UniProt P15151)
CD155 (Homo sapiens) [2] = molecular target: CD155 (Homo sapiens) (UniProt P15151); remark: listed apart in the source

Row | Kd (CD155 (Homo sapiens) [1]) [nM] | Kd (CD155 (Homo sapiens) [2]) [nM] | Substance
1 | 100 | – | CD226 (from UniProt Q15762)
2 | – | 1 | TIGIT (from UniProt Q495A1)
